The text below walks through data of patent US20140018288A1, “X-DING-CD4 Peptide” (priority 2012, published 2014).

For one data set, the system named is NL4-3 HIV-1 isolate. As to the kind of experiment: MAGI assay of HIV-1 replication in MAGI-CCR-5 cells. It is filed as cell-based. The note with it: MAGI-CCR-5 cells, NL4-3 HIV-1. The procedure:
The antiviral activity of rX-DING-CD4^pep was tested by MAGI assay. […] Subsequently, cells were exposed to rX-DING-CD4^pep treatment in the presence of DMEM supplemented with 5% fetal bovine serum, antibiotics, glutamate and […] DEAE dextran. […] Replication of virus was evaluated forty eight hours later after fixation of cells with 1% formaldehyde and 0.2% glutaraldehyde in PBS. Expression of β-galactosidase was visualized by 50 min exposure to X-GAL (5-bromo-4-chloro-3-indolyl-β-D-galactopyranoside), 0.4 mg/ml 2 mM MgCl2, 4 mM potassium ferricyanide at 37° C. After enumeration of the infected (blue) cells, all cells were lysed and subjected to the protein assay (Bio-Rad). All data were adjusted by total protein concentration and anti-viral activity was calculated as percent inhibition. The infected untreated and uninfected cells served as (+) and (−) controls to calculate 100% virus infectivity. The inhibition values for HIV-1 replication were calculated based on the formula [(R1−R0)×100/Z]-100; where R1 is the value obtained from cells infected by HIV-1 and treated with specific dilution of X-DING-CD4^pep and R^0 is the basal value obtained from the uninfected and untreated cells; Z is the absolute HIV-1 replication value calculated as Z═Rmax−R0, where Rmax is the value representing 100% of HIV-1 replication in X-DING-CD4^pep untreated cells.

The nature of data set [1]: Acute toxicity after intraperitoneal injection in mice. The class given is in vivo, mice (B6/SJL). As to conditions: 1-50 μg rX-DING-CD4^pep or 50 μg nX-DING-CD4, 7 days. The procedure:
In the animal tests, eight-week old wild-type mice (B6/SJL) with both genders in each test group were injected intraperitoneally with 1-50 μg of rX-DING-CD4^pep or 50 μg nX-DING-CD4. The nX-DING-CD4 refers to the native form of X-DING-CD4 protein that was purified through IXC chromatography from the extracellular compartment of HIV-1 resistant T-cells. The rX-DING-CD4^pep refers to therapeutic X-DING-CD4 peptide that was expressed in E. coli and purified through Ni-affinity column. Toxicity was assessed by obvious symptoms including diarrhea, ruffled fur, abnormal gait, or loss of more than 10% weight. Animals were weighted before injection and then observed every hour for the first 10 hours after injection; then animals were weighted on 1, 3, 4 and 7 days after X-DING-CD4 administration. […] In its highest administered dose (50 μg—corresponding to 2 μg/G) we exceeded therapeutic dose blocking 95% of HIV promoter activity (by RSA assays) and 90% virus replication (by MAGI assays) (See FIGS. 2 & 3 in Example 2).

The test system of data set [2] is EcoHIV (ecotropic HIV-1 EcoNDK). As to the kind of experiment: EcoHIV mouse model of HIV infection, Tat and Vif mRNA by qRT-PCR. The class given is in vivo, C57BL mice. As to conditions: two intraperitoneal doses of 20 μg. The source says:
The mouse model of HIV infection is well-known by persons skilled in the art and is widely used to study therapeutic activities of various pharmaceutical agents. It was generated by using chimeric HIV (EcoHIV), which is a modified HIV that can infect mouse T cells and macrophages and can establish persistent infection of immunocompetent mice after intravenous or intraperitoneal exposure (Potash et al., 2005). The EcoHIV infection mouse model reproduces many characteristics of HIV-1 infection in humans such as virus targeting to lymphocytes and macrophages, induction of antiviral immune responses, neuroinvasiveness, and elevation of expression of inflammatory and antiviral factors in the brain (Potash et al., 2005). […]
In this example, we started with three groups of C57BL mice (groups I, II and III), each group having three mice. […] The amount of EcoHIV-1 virus load was assessed by determining the messenger RNA (mRNA) levels of HIV-Tat and Vif genes by quantitative RT-PCR (qRT-PCR). The amount of HIV-1 Gag DNA in the each sample, which was also determined by qRT-PCR, was used as a quantitative control for the HIV-Tat and Vif mRNA levels. […]

Another data set deals with X-DING-CD4 mRNA. As to the kind of experiment: Induction of X-DING-CD4 mRNA expression in 1G5 cells (qRT-PCR). The class given is cell-based. As to conditions: 6 hours, 200 ng/ml. The method, then: The sX-DING-CD4 may be released from the macropinosome to endoplasmic reticulum (ER) and cause induction of IFNα, which in turn induces the expression of X-DING-CD4 mRNA and endogenous X-DING-CD4 protein (step 2). The induction of X-DING-CD4 mRNA by sX-DING-CD4 was tested in 1G5 cells. Briefly, three groups of 1G5 cells were treated for 6 hours with NL4-3 HIV-1 at MOI of 0.1, 200 ng/ml native X-DING-CD4 protein, and 1-126 rX-DING-CD4 peptide (i.e., rX-DING-CD4^pep), respectively. […] The eX-DING-CD4, derived from the newly synthesized X-DING-CD4, binds CN and is transported into the nucleus where it blocks LTR transcription (steps 2-7).
Two peptide fragments from the N-terminal region of X-DING-CD4 were synthesized and their activities in inducing IFN-α and X-DING-CD4 mRNA expressions were determined by qRT-PCR. The concentration of proteins used in the assays was 200 ng/ml except for the combination of XD-1 and XD-4 where we used 100 ng/ml of each peptide. The 1-126 rX-DING-CD4 and peptide C3 p16 served as positive and negative controls, respectively. The C3 Peptide P16 was derived from the C3d component of serum complement. C3 Peptide P16 regulates B cells, but not T cells, through interacting with the gp140 C3d receptor (CR2).

B1: MADINGGGATLPQPLYQTSGVLTAGFAPYIGVGSGKGKLAFLNNDYSQFGTGTKNVHWAGSDSKLTSTELSTYASTKQAAWGKLIQVPSVATSVAIPFNKAGSNAVDLSVDQLCGVFSGRITTWNQ (protein, listed as Homo sapiens)
chain: MADINGGGATLPQPLYQTSGVLTAGFAPYIGVGSGKGKLAFLNNDYSQFGTGTKNVHWAGSDSKLTSTELSTYASTKQAAWGKLIQVPSVATSVAIPFNKAGSNAVDLSVDQLCGVFSGRITTWNQ
In the data set on NL4-3 HIV-1 isolate, B1 yielded an IC50 of 0.0189 µM and an IC80 of 0.151 µM. For the same molecule, the “obvious symptoms of toxicity (diarrhea, ruffled fur, abnormal gait)” value in data set [1] is reported as “Neither of rX-DING-CD4^pep treatment nor nX-DING-CD4 treatment caused any obvious symptoms”. Also, the “expression of EcoHIV Tat mRNA and vif mRNA versus saline or heat inactivated peptide” value in data set [2] (48 hours) is given as “decreased expression”. In addition, in data set [2] (two days after infection), the “transcription of EcoHIV blocked” value is 75%. The “expression of X-DING-CD4 mRNA” value with X-DING-CD4 mRNA is listed as “induced expression of X-DING-CD4 mRNA”.
